Measurements: the supplement of paper PMC10724198
± gives the standard deviation of the averaged measurements.

Experiments:
Saccharomyces cerevisiae [1] = experiment: protein stability index of tFT-peptide fusion (C-terminal peptide) (PSI (0-1 scale)); higher = more stable (slower turnover); settings: genetic background: wild type; temperature: 30 C
Saccharomyces cerevisiae [2] = experiment: as above
Protocol: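 MPS profiling in S. cerevisiae of the tFT-X12 degron library: putative degron peptides plus stable controls, 12 aa, fused to the C-terminus of a sfGFP-mCherry timer. Cells are FACS-sorted into 8 mCherry/sfGFP bins and deep-sequenced. PSI runs from 0 (unstable) to 1 (stable). Backgrounds are wild type, das1Δ and doa10Δ at 30 °C, and wild type, das1Δ, cdc34-1 and cdc53-1 at 37 °C; 2-3 technical replicates each.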

[3] = genetic background: cdc34-1, temperature: 37 C
[4] = genetic background: cdc53-1, temperature: 37 C
[5] = genetic background: das1 deletion, temperature: 30 C
[6] = genetic background: das1 deletion, temperature: 37 C
[7] = genetic background: doa10 deletion, temperature: 30 C
[8] = genetic background: wild type, temperature: 30 C
[9] = genetic background: wild type, temperature: 37 C
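Also: PSI is a weighted mean of sequencing reads over stability bins, variants kept only with over 10 reads, mCherry proximal and sfGFP distal, peptide attached via GGGS linker.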

Sequence | protein stability index (Saccharomyces cerevisiae [1]) | protein stability index (Saccharomyces cerevisiae [2]; [3]) | protein stability index (Saccharomyces cerevisiae [2]; [4]) | protein stability index (Saccharomyces cerevisiae [2]; [5]) | protein stability index (Saccharomyces cerevisiae [2]; [6]) | protein stability index (Saccharomyces cerevisiae [2]; [7]) | protein stability index (Saccharomyces cerevisiae [2]; [8]) | protein stability index (Saccharomyces cerevisiae [2]; [9])
SWRRCLSSIPVA | 0.425 ± 0.013 | 0.383 ± 0.0085 | 0.416 ± 0.012 | 0.319 ± 0.026 | 0.457 ± 0.0086 | 0.276 ± 0.0056 | 0.303 ± 0.035 | 0.438 ± 0.012
SWVVLVSFLSWR | 0.357 ± 0.0065 | 0.2561 ± 0.0015 | 0.3502 ± 0.0028 | 0.245 ± 0.031 | 0.4285 ± 0.003 | 0.233 ± 0.0082 | 0.232 ± 0.032 | 0.424 ± 0.031
SWWGDVVWFVVC | 0.282 ± 0.03 | 0.555 ± 0.059 | 0.649 ± 0.015 | 0.501 ± 0.015 | 0.7029 ± 0.0032 | 0.176 ± 0.018 | 0.199 ± 0.03 | 0.381 ± 0.0062
SYGNGIPIRMLH | 0.329 ± 0.014 | 0.656 ± 0.035 | 0.707 ± 0.026 | 0.641 ± 0.013 | 0.728 ± 0.013 | 0.204 ± 0.013 | 0.217 ± 0.013 | 0.422 ± 0.05
SYLPSHVYIFLL | 0.128 ± 0.019 | 0.275 ± 0.0049 | 0.309 ± 0.02 | 0.273 ± 0.032 | 0.4417 ± 0.0022 | 0.097 ± 0.0087 | 0.0758 ± 0.019 | 0.129 ± 0.034
TFLCSSLALAVI | 0.405 ± 0.042 | 0.455 ± 0.03 | 0.509 ± 0.032 | 0.338 ± 0.022 | 0.4985 ± 0.0021 | 0.317 ± 0.023 | 0.334 ± 0.014 | 0.4789 ± 0.00054
TGYRYVGRFFVV | 0.248 ± 0.01 | 0.653 ± 0.037 | 0.723 ± 0.039 | 0.588 ± 0.016 | 0.691 ± 0.016 | 0.155 ± 0.0032 | 0.163 ± 0.02 | 0.329 ± 0.011
TLCFRLSWVLLV | 0.0528 ± 0.037 | 0.0812 ± 0.028 | 0.15 ± 0.013 | 0.144 ± 0.02 | 0.22 ± 0.014 | 0.0335 ± 0.006 | 0.0265 ± 0.0028 | 0.0672 ± 0.022
TLNKDILIIKCA | 0.212 ± 0.0051 | 0.382 ± 0.023 | 0.42 ± 0.036 | 0.286 ± 0.035 | 0.45 ± 0.013 | 0.135 ± 0.022 | 0.175 ± 0.022 | 0.214 ± 0.049
TNFVVRLRFVLF | 0.366 ± 0.029 | 0.534 ± 0.021 | 0.5485 ± 0.00062 | 0.464 ± 0.016 | 0.522 ± 0.02 | 0.29 ± 0.015 | 0.295 ± 0.0087 | 0.419 ± 0.011
TVRVVMLRLLFT | 0.418 ± 0.021 | 0.452 ± 0.027 | 0.52 ± 0.025 | 0.346 ± 0.035 | 0.528 ± 0.0076 | 0.309 ± 0.02 | 0.33 ± 0.024 | 0.493 ± 0.018
VAFLWVAFCFSG | 0.276 ± 0.046 | 0.205 ± 0.0023 | 0.355 ± 0.044 | 0.224 ± 0.03 | 0.3883 ± 0.0035 | 0.178 ± 0.019 | 0.203 ± 0.016 | 0.366 ± 0.021
VAIMSIWLVYML | 0.454 ± 0.0058 | 0.349 ± 0.0086 | 0.465 ± 0.0057 | 0.341 ± 0.031 | 0.497 ± 0.016 | 0.331 ± 0.0076 | 0.333 ± 0.0079 | 0.4919 ± 0.0028
VALAVRVVVCGA | 0.142 ± 0.041 | 0.0316 ± 0.014 | 0.0354 ± 0.0067 | 0.122 ± 0.039 | 0.106 ± 0.0073 | 0.0887 ± 0.0097 | 0.108 ± 0.028 | 0.0779 ± 0.01
VAWCVWCWWWAV | 0.131 ± 0.047 | 0.188 ± 0.0033 | 0.322 ± 0.0061 | 0.209 ± 0.021 | 0.351 ± 0.0049 | 0.06 ± 0.016 | 0.0674 ± 0.015 | 0.0852 ± 0.013
VCLFWLFLWRIL | 0.266 ± 0.0063 | 0.208 ± 0.018 | 0.167 ± 0.027 | 0.3 ± 0.027 | 0.374 ± 0.013 | 0.217 ± 0.014 | 0.182 ± 0.0051 | 0.241 ± 0.016
VCLWVEVLIVLG | 0.209 ± 0.011 | 0.0839 ± 0.023 | 0.205 ± 0.056 | 0.136 ± 0.03 | 0.25 ± 0.014 | 0.106 ± 0.031 | 0.129 ± 0.021 | 0.183 ± 0.0078
VCPWGYCSEWGF | 0.759 ± 0.013 | 0.772 ± 0.047 | 0.82244 ± 0.00034 | 0.697 ± 0.023 | 0.8015 ± 0.0031 | 0.692 ± 0.043 | 0.687 ± 0.014 | 0.7887 ± 0.006
VFCSVGVSLFFG | 0.411 ± 0.021 | 0.335 ± 0.014 | 0.496 ± 0.027 | 0.289 ± 0.04 | 0.5138 ± 0.0017 | 0.258 ± 0.015 | 0.284 ± 0.023 | 0.5118 ± 0.0026
VFFLFAVCSVLV | 0.152 ± 0.02 | 0.0858 ± 0.0079 | 0.18 ± 0.0095 | 0.106 ± 0.029 | 0.2738 ± 0.0011 | 0.0641 ± 0.0032 | 0.0857 ± 0.033 | 0.248 ± 0.04

Sequence | protein stability index (Saccharomyces cerevisiae [1]) | protein stability index (Saccharomyces cerevisiae [2]; [3]) | protein stability index (Saccharomyces cerevisiae [2]; [4]) | protein stability index (Saccharomyces cerevisiae [2]; [5]) | protein stability index (Saccharomyces cerevisiae [2]; [6]) | protein stability index (Saccharomyces cerevisiae [2]; [7]) | protein stability index (Saccharomyces cerevisiae [2]; [8]) | protein stability index (Saccharomyces cerevisiae [2]; [9])
VFFLRVHFWSFF | 0.2826 ± 0.0026 | 0.377 ± 0.01 | 0.487 ± 0.011 | 0.368 ± 0.029 | 0.53367 ± 0.00033 | 0.138 ± 0.015 | 0.168 ± 0.0092 | 0.246 ± 0.02
VFFLVHFHLPMF | 0.455 ± 0.05 | 0.531 ± 0.053 | 0.57 ± 0.041 | 0.414 ± 0.031 | 0.561 ± 0.01 | 0.394 ± 0.0077 | 0.401 ± 0.019 | 0.536 ± 0.03
VFGFLVFYVCVR | 0.268 ± 0.0095 | 0.0903 ± 0.036 | 0.146 ± 0.021 | 0.153 ± 0.047 | 0.282 ± 0.014 | 0.135 ± 0.027 | 0.151 ± 0.026 | 0.248 ± 0.026
VFHMFGWCGGAR | 0.764 ± 0.071 | 0.728 ± 0.015 | 0.8 ± 0.0098 | 0.673 ± 0.012 | 0.77 ± 0.026 | 0.678 ± 0.042 | 0.673 ± 0.028 | 0.7518 ± 0.0011
VFLFSLCIRLSR | 0.204 ± 0.008 | 0.122 ± 0.065 | 0.214 ± 0.0052 | 0.141 ± 0.031 | 0.289 ± 0.013 | 0.133 ± 0.013 | 0.147 ± 0.018 | 0.248 ± 0.011
VFLVFSVWVVYR | 0.318 ± 0.027 | 0.2 ± 0.0081 | 0.304 ± 0.00039 | 0.233 ± 0.024 | 0.357 ± 0.018 | 0.2068 ± 0.00094 | 0.218 ± 0.026 | 0.343 ± 0.053
VFLVRTVTQISA | 0.304 ± 0.017 | 0.289 ± 0.02 | 0.371 ± 0.033 | 0.291 ± 0.025 | 0.445 ± 0.015 | 0.219 ± 0.0079 | 0.254 ± 0.028 | 0.397 ± 0.016
VFRLFFLLVWLV | 0.123 ± 0.014 | 0.079 ± 0.016 | 0.0744 ± 0.019 | 0.184 ± 0.023 | 0.25 ± 0.0081 | 0.1663 ± 0.00045 | 0.112 ± 0.026 | 0.13 ± 0.021
VFRLLALLWRFF | 0.325 ± 0.056 | 0.606 ± 0.01 | 0.695 ± 0.018 | 0.62 ± 0.031 | 0.767 ± 0.029 | 0.323 ± 0.037 | 0.31 ± 0.022 | 0.42 ± 0.012
VFSLAFYLVLFF | 0.343 ± 0.056 | 0.326 ± 0.063 | 0.349 ± 0.0065 | 0.346 ± 0.025 | 0.46 ± 0.015 | 0.415 ± 0.011 | 0.319 ± 0.029 | 0.418 ± 0.037
VFSRVLSVLLSA | 0.386 ± 0.0071 | 0.493 ± 0.011 | 0.514 ± 0.033 | 0.405 ± 0.029 | 0.5429 ± 0.0039 | 0.2377 ± 0.0015 | 0.282 ± 0.027 | 0.457 ± 0.024
VFVGWVLCVVGG | 0.218 ± 0.045 | 0.04576 ± 0.00018 | 0.161 ± 0.0032 | 0.143 ± 0.021 | 0.2762 ± 0.00081 | 0.0778 ± 0.03 | 0.132 ± 0.027 | 0.2377 ± 0.002
VFWLLVAVLRYW | 0.307 ± 0.06 | 0.224 ± 0.018 | 0.247 ± 0.0056 | 0.243 ± 0.023 | 0.354 ± 0.0044 | 0.263 ± 0.011 | 0.222 ± 0.016 | 0.325 ± 0.013
VGVSVVMVVEVP | 0.0948 ± 0.012 | 0.0286 ± 0.0009 | 0.0328 ± 0.00097 | 0.0504 ± 0.005 | 0.0524 ± 0.0097 | 0.0409 ± 0.011 | 0.042 ± 0.0027 | 0.0384 ± 0.0064
VGVVLWWVVLMV | 0.241 ± 0.017 | 0.118 ± 0.014 | 0.181 ± 0.0027 | 0.184 ± 0.024 | 0.28 ± 0.0034 | 0.154 ± 0.012 | 0.16 ± 0.029 | 0.251 ± 0.0034
VGYHCIVGVIFL | 0.524 ± 0.081 | 0.467 ± 0.031 | 0.491 ± 0.041 | 0.359 ± 0.036 | 0.545 ± 0.0059 | 0.326 ± 0.012 | 0.372 ± 0.013 | 0.512 ± 0.015
VIRFNSAPRFLV | 0.213 ± 0.047 | 0.614 ± 0.054 | 0.7214 ± 0.0026 | 0.629 ± 0.026 | 0.7443 ± 0.0009 | 0.108 ± 0.031 | 0.125 ± 0.016 | 0.236 ± 0.0043
VIWIRMISFFVW | 0.245 ± 0.015 | 0.192 ± 0.035 | 0.283 ± 0.024 | 0.2 ± 0.043 | 0.35 ± 0.013 | 0.174 ± 0.01 | 0.188 ± 0.034 | 0.346 ± 0.048
VIYNSALLLVRL | 0.391 ± 0.041 | 0.273 ± 0.031 | 0.225 ± 0.01 | 0.249 ± 0.031 | 0.407 ± 0.037 | 0.325 ± 0.014 | 0.25 ± 0.023 | 0.386 ± 0.01
